Where two headings read alike, the source gives them in different places. Marks after values point to notes of the source that are not given here.
Tests used:
[1] = Protocol: Toxicity as Measured by Weight Loss. The percentage weight change was determined in mice (5 mice/group) on selected days post-tumor inoculation (PTI), compared to controls, and graphed.
[2] = parameters: AUC (DAVLBH biliary excretion): unit not given beside the values; details: rat, in vivo
[3] = Serum binding, 30K NMWL filtration, HPLC-UV; assay type: in vitro ADME; details: 50 μM compound in serum, n=3
Protocol: Serum Binding. Serum binding of Folate-DAVLBH conjugates containing hydrophilic spacer linkers compared to Comparative Example EC 145 lacking a hydrophilic spacer linker 50 μM compound in serum with 30K NMWL filtration and evaluation by HPLC-UV detection (n=3).

20S proteosome = experiment: Inhibition of LPS stimulated proteosome activity in RAW 264.7 cells (FIG. 18); assay type: cell-based; details: 5 h pulse/24 h chase, LPS 100 ng/mL
[4] = Cell viability, XTT, 5 h pulse/72 h chase (FIG. 16); assay type: cell-based
RAW264.7 cells = assay type: cell-based; details: for RAW264.7 Cells Competable with xs folate: excess folic acid
Protocol: (§1) In Vitro Concentration-Dependent Cytotoxic Activity. Cells were heavily seeded in 24-well Falcon plates and allowed to form nearly confluent monolayers overnight. Thirty minutes prior to the addition of test article, spent medium was aspirated from all wells and replaced with fresh folate-free RPMI (FFRPMI). […] Treated cells were pulsed for 2 h at 37° C., rinsed 4 times with 0.5 mL of media, and then chased in 1 mL of fresh media up to 70 h. Spent media was aspirated from all wells and replaced with fresh media containing 5 μCi/mL ^3H-thymidine. Following a further 2 h 37° C. incubation, cells were washed 3 times with 0.5 mL of PBS and then treated with 0.5 mL of ice-cold 5% trichloroacetic acid per well. After 15 min, the trichloroacetic acid was aspirated and the cell material solubilized by the addition of 0.5 mL of 0.25 N sodium hydroxide for 15 min. Four hundred and fifty μL of each solubilized sample were transferred to scintillation vials containing 3 mL of Ecolume scintillation cocktail and then counted in a liquid scintillation counter. Final tabulated results were expressed as the percentage of ^3H-thymidine incorporation relative to untreated controls.
(§2) As shown in the figures herein, dose-dependent cytotoxicity was measurable, and in most cases, the IC50 values (concentration of drug conjugate required to reduce ^3H-thymidine incorporation into newly synthesized DNA by 50%) were in the low nanomolar range. […] The following table illustrated data for selected compounds against KB cells and against RAW264.7 cells

[5] = system: folate receptor-positive KB cells; assay type: cell-based; details: excess folic acid
Protocol: Inhibition of Cellular DNA Synthesis. The compounds described herein were evaluated using an in vitro cytotoxicity assay that predicts the ability of the drug to inhibit the growth of folate receptor-positive KB cells. The compounds were comprised of folate linked to a respective chemotherapeutic drug, as prepared according to the protocols described herein. […] The cells were then rinsed once with fresh culture medium and incubated in fresh culture medium for 72 hours at 37° C. Cell viability was assessed using a ^3H-thymidine incorporation assay.
as §1, §2

[6] = Hepatobiliary excretion (bile clearance) in bile duct cannulated rats; details: 2 μmol/kg i.v. bolus
Description: Comparison of Bile Clearance (% ID) of unconjugated drug, drug conjugate lacking a hydrophilic spacer linker, and conjugates described herein.

in vivo = experiment: in vivo; parameters: species or system mice; details: for MTD: mouse, in vivo, read-out: Single Dose MTDapp
[7] = Multiple dose MTD, i.v. TIW for 1 week; details: mouse, in vivo, iv, Balb/c mice
Protocol: EC0436 and Comparative Example EC0305 were also administered i.v. to Balb/c mice TIW for 1 week. The resulting MTD for the multiple dose was EC0305 ([…]) and EC0436 ([…]).

[8] = Cytotoxicity of bortezomib versus EC0501 (FIG. 14); assay type: cell-based
[9] = FIG. 6B, 7B, 8B, M109 tumors, Balb/c mice, 2 μmol/kg TIW two weeks
[10] = mice, single dose, EC0234 dose limited by solubility
[11] = FIG. 3B, M109 tumors, TIW 3 μmol/kg, 3 wks

With `CC[C@]1(O)C[C@H]2CN(CCc3c([nH]c4ccccc34)[C@@](C(=O)OC)(c3cc4c(cc3OC)N(C)[C@H]3[C@@](O)(C(=O)NNC(=O)OCCSSC[C@H](NC(=O)[C@H](CC(=O)O)NC(=O)[C@H](CC(=O)O)NC(=O)[C@H](CCCNC(=N)N)NC(=O)[C@H](CC(=O)O)NC(=O)CC[C@H](NC(=O)c5ccc(NCc6cnc7nc(N)[nH]c(=O)c7n6)cc5)C(=O)O)C(=O)O)[C@H](O)[C@]5(CC)C=CCN6CC[C@]43[C@@H]65)C2)C1` [EC145, reference compound] the “gross toxicity (percentage body weight change)” value ([1]; mouse, in vivo) was “no gross toxicity was observed”, the “AUC (DAVLBH biliary excretion)” value ([2]; iv) was 1092 and the “percent of total dose in the bile (total DAVLBH biliary excretion)” value ([2]; iv) was 8.7%. The fraction unbound at 50 μM ([3]; human, read-out: Human Serum (% Bound) (converted)) was 0.457 and the fraction unbound at 50 μM ([3]; mouse, read-out: Mouse Serum (% Bound) (converted)) was 0.327.
For `CC(C)C[C@H](NC(=O)[C@H](Cc1ccccc1)NC(=O)c1cnc(CSSC[C@H](NC(=O)[C@H](CCC(=O)NC[C@H](O)[C@@H](O)[C@H](O)[C@H](O)CO)NC(=O)[C@H](CCC(=O)O)NC(=O)[C@H](CCC(=O)NC[C@H](O)[C@@H](O)[C@H](O)[C@H](O)CO)NC(=O)[C@H](CCC(=O)O)NC(=O)[C@H](CCC(=O)NC[C@H](O)[C@@H](O)[C@H](O)[C@H](O)CO)NC(=O)CC[C@H](NC(=O)c2ccc(NCc3cnc4nc(N)[nH]c(=O)c4n3)cc2)C(=O)O)C(=O)O)cn1)B(O)O` [EC0525], the IC50 (20S proteosome) was roughly 30 nM, the IC50 [4] was 46 nM and the “RAW264.7 Cells Competable with xs folate” value (RAW264.7 cells) was “Yes”.
In the case of `CC[C@]1(O)C[C@H]2CN(CCc3c([nH]c4ccccc34)[C@@](C(=O)OC)(c3cc4c(cc3OC)N(C)[C@H]3[C@@](O)(C(=O)NNC(=O)OCCSSC[C@H](NC(=O)CCOCCOCCOCCOCCOCCOCCOCCOCCOCCOCCOCCOCCNC(=O)CC[C@H](NC(=O)c5ccc(NCc6cnc7nc(N)nc(O)c7n6)cc5)C(=O)O)C(=O)O)[C@H](O)[C@]5(CC)C=CCN6CC[C@]43[C@@H]65)C2)C1` [EC0409], the “Bile clearance (% ID)” value [2] is reported as 7.9 % ID and the “KB Cells Competable with xs folate” value [5] is reported as “Yes”.
With `CC[C@]1(O)CC2CN(CCc3c([nH]c4ccccc34)[C@@](C(=O)OC)(c3cc4c(cc3OC)N(C)C3C45CCN4CC=C[C@](CC)(C45)[C@@H](O)[C@]3(O)C(=O)NNC(=O)OCCSSC[C@H](NC(=O)C[C@H](NC(=O)C[C@H](NC(=O)CN3CCN(CCNC(=O)C[C@H](NC(=O)CC[C@H](NC(=O)c4ccc(NCc5cnc6nc(N)[nH]c(=O)c6n5)cc4)C(=O)O)C(=O)O)CC3)C(=O)O)C(=O)O)C(=O)O)C2)C1` (stereo partly drawn) [EC0429] the “percent of total dose in the bile (total DAVLBH biliary excretion)” value [6] was 8.6% and the “gross toxicity (percentage body weight change)” value [1, 9] was “no gross toxicity was observed”.
Work on `CC[C@]1(O)C[C@H]2CN(CCc3c([nH]c4ccccc34)[C@@](C(=O)OC)(c3cc4c(cc3OC)N(C)[C@H]3[C@@](O)(C(=O)NNC(=O)OCCSSC[C@H](NC(=O)[C@@H](NC(=O)[C@H](CC(=O)O)NC(=O)[C@@H](NC(=O)[C@H](CC(=O)O)NC(=O)[C@@H](NC(=O)CC[C@H](NC(=O)c5ccc(NCc6cnc7nc(N)[nH]c(=O)c7n6)cc5)C(=O)O)[C@@H](O)[C@H](O)[C@H](O)CO)[C@@H](O)[C@H](O)[C@H](O)CO)[C@@H](O)[C@H](O)[C@H](O)CO)C(=O)O)[C@H](O)[C@]5(CC)C=CCN6CC[C@]43[C@@H]65)C2)C1` [EC0263, Tris-Saccharo-Bis-Asp-Folate Vinblastine Conjugate] yielded an MTD (in vivo; [10]) greater than 20 µmol/kg.
In the case of `CCCC(=O)OCN(C(=O)[C@@H](NC[C@H]1CCCCN1C)C(C)CC)[C@H](C[C@@H](OC(C)=O)c1nc(C(=O)N[C@@H](Cc2ccc(O)cc2)C[C@H](C)C(=O)NNC(=O)OCCSSC[C@H](NC(=O)[C@H](CC(=O)O)NC(=O)[C@H](CCCNC(=N)N)NC(=O)[C@H](CC(=O)O)NC(=O)CC[C@H](NC(=O)c2ccc(NCc3cnc4nc(N)[nH]c(=O)c4n3)cc2)C(=O)O)C(=O)O)cs1)C(C)C` (stereo partly drawn) [EC0305, reference compound], the “gross toxicity (percentage body weight change)” value [1, 9] is reported as “no gross toxicity was observed” and the MTD at 1 week [7] is reported as 6 µmol/kg.
With `CC[C@]1(O)C[C@H]2CN(CCc3c([nH]c4ccccc34)[C@@](C(=O)OC)(c3cc4c(cc3OC)N(C)[C@H]3[C@@](O)(C(=O)NNC(=O)OCCSSC[C@H](NC(=O)[C@@H](NC(=O)[C@H](CC(=O)O)NC(=O)[C@@H](NC(=O)CC[C@H](NC(=O)c5ccc(NCc6cnc7nc(N)[nH]c(=O)c7n6)cc5)C(=O)O)[C@@H](O)[C@H](O)[C@H](O)CO)[C@@H](O)[C@H](O)[C@H](O)CO)C(=O)O)[C@H](O)[C@]5(CC)C=CCN6CC[C@]43[C@@H]65)C2)C1` [EC0246, Bis-Saccharo-Folate Vinblastine Conjugate] the “gross toxicity (percentage body weight change)” value [1, 11] was “no gross toxicity was observed”, the mice died (in vivo; at 20 μmol/kg single dose) was “**⅓ mice died at 20 μmol/kg” and the “Single Dose MTDapp” value (in vivo; [10]) was <20** μmol/kg.
In the case of `CC[C@]1(O)C[C@H]2CN(CCc3c([nH]c4ccccc34)[C@@](C(=O)OC)(c3cc4c(cc3OC)N(C)[C@H]3[C@@](O)(C(=O)NNC(=O)OCCSSC[C@H](NC(=O)[C@@H](NC(=O)CC[C@H](NC(=O)c5ccc(NCc6cnc7nc(N)[nH]c(=O)c7n6)cc5)C(=O)O)[C@@H](O)[C@H](O)[C@H](O)CO)C(=O)O)[C@H](O)[C@]5(CC)C=CCN6CC[C@]43[C@@H]65)C2)C1` [EC0234, Mono-Saccharo-Folate Vinblastine Conjugate], the “gross toxicity (percentage body weight change)” value [1, 11] is reported as “no gross toxicity was observed” and the MTD (in vivo; [10]) is reported as 12 µmol/kg.
Compound `CC(C)C[C@H](NC(=O)[C@H](Cc1ccccc1)NC(=O)c1cnc(CSSC[C@H](NC(=O)[C@H](CCC(=O)NC[C@H](O)[C@@H](O)[C@H](O)[C@H](O)CO)NC(=O)[C@H](CCC(=O)O)NC(=O)[C@H](CSSCc2cnc(C(=O)N[C@@H](Cc3ccccc3)C(=O)N[C@@H](CC(C)C)B(O)O)cn2)NC(=O)[C@H](CCC(=O)NC[C@H](O)[C@@H](O)[C@H](O)[C@H](O)CO)NC(=O)[C@H](CCC(=O)O)NC(=O)[C@H](CCC(=O)NC[C@H](O)[C@@H](O)[C@H](O)[C@H](O)CO)NC(=O)CC[C@H](NC(=O)c2ccc(NCc3cnc4nc(N)[nH]c(=O)c4n3)cc2)C(=O)O)C(=O)O)cn1)B(O)O` [EC0595] has an IC50 (20S proteosome) of roughly 30 nM, an IC50 [4] of 13 nM and an IC50 (RAW264.7 cells) of 4 nM. The “RAW264.7 Cells Competable with xs folate” value (RAW264.7 cells) was “Yes”.
In the case of `CC[C@]1(O)C[C@H]2CN(CCc3c([nH]c4ccccc34)[C@@](C(=O)OC)(c3cc4c(cc3OC)N(C)[C@H]3[C@@](O)(C(=O)NNC(=O)OCCSSC[C@H](NC(=O)[C@@H](NC(=O)[C@@H](NC(=O)[C@H](CC(=O)O)NC(=O)[C@@H](NC(=O)CC[C@H](NC(=O)c5ccc(NCc6cnc7nc(N)[nH]c(=O)c7n6)cc5)C(=O)O)[C@@H](O)[C@H](O)[C@H](O)CO)[C@@H](O)[C@H](O)[C@H](O)CO)[C@@H](O)[C@H](O)[C@H](O)CO)C(=O)O)[C@H](O)[C@]5(CC)C=CCN6CC[C@]43[C@@H]65)C2)C1` [EC0258, Tris-Saccharo-Asp-Folate Vinblastine Conjugate], the “Bile clearance (% ID)” value [2] is reported as 3.2 % ID and the “KB Cells Competable with xs folate” value [5] is reported as “Yes”.
`CC(C)C[C@H](NC(=O)[C@H](Cc1ccccc1)NC(=O)c1cnccn1)B(O)O` [bortezomib] gave an IC50 [8] of 20 nM.

— patent US20140073761A1, “CONJUGATES CONTAINING HYDROPHILIC SPACER LINKERS” (priority 2007, published 2014)
